Tests used:
sialyl Lewis x = assay: Sialyl Lewis x expression in NALL1 cells by flow cytometer (CSLEX1 antibody); assay type: cell-based, human
Excerpt: Fluorescence intensity and distribution of cell count of a sialyl Lewis x sugar chain antigen which is a major selectin ligand sugar chain were confirmed in flow cytometer by using a CSLEX antibody (antibody specifically recognizing the sialyl Lewis x structure; product of Becton, Dickinson and Company) to which a tandem dye APC-Cy7 was bound in accordance with a method described in J. Biol. Chem., 273, 41, 26779-26789 (1998). Rightward shifting in the histogram means an increase in the fluorescence intensity, i.e. an amount of expression of sialyl Lewis x.
These siRNAs were expressed in cells to confirm the effects. For introduction of siRNA into cells, a lentivirus system (product of Invitrogen Corporation) which is able to gene introduction into blood cells at high efficiency and an expression vector for lentivirus pLL3.7 (Nat. Genet., 33, 401-406 (2003)) were used. In the pLL3.7 vector, it is possible to introduce a sense/antisense siRNA sequence including a hair-pin structure downstream of a U6 promoter. […] Therefore, expression of the CD43 antigen and sialyl Lewis x and the selectin binding ability of the cells in which the GFP expression was observed, i.e. of the cells in which siRNA was expressed, were analyzed by using the antibody MEM59 (product of Monosan) for CD43, sialyl Lewis x antibody CSLEX1, and human chimera-Fc-Ig-E- or P-selectin with the use of a flow cytometer. […]

P-selectin = P-selectin binding ability of NALL1 cells by flow cytometer (human chimera-Fc-Ig-P-selectin); assay type: cell-based
Excerpt: (§1) Likewise, a binding ability to E-selectin and P-selectin was confirmed in flow cytometer through fluorescence intensity and distribution of cell count measured by using a recombinant protein (human chimera-Fc-Ig-E-selectin or human chimera-Fc-Ig-P-selectin; product of R & D Systems) in accordance with the method descried in Blood, 104, 3091-3096 (2004). […] Rightward shifting in the histogram means an increase in the fluorescence intensity, i.e. binding ability to selectin.
(§2) These siRNAs were expressed in cells to confirm the effects. […] Therefore, expression of the CD43 antigen and sialyl Lewis x and the selectin binding ability of the cells in which the GFP expression was observed, i.e. of the cells in which siRNA was expressed, were analyzed by using the antibody MEM59 (product of Monosan) for CD43, sialyl Lewis x antibody CSLEX1, and human chimera-Fc-Ig-E- or P-selectin with the use of a flow cytometer. […]
(§3) Benzyl-α-N-acetylgalactosamine (Bz-α-GalNAc; product of Sigma-Aldrich Japan, K.K.) which is one of sugar chain synthesis inhibiting agents was added to a culture supernatant of NALL1 cells to detect its binding ability to selectin. […] After adding 4 mM of benzyl-α-N-acetylgalactosamine to the culture supernatant of NALL1 cells, expressions of the CD43 antigen and sialyl Lewis x and binding ability to E- and P-selectin were detected by a flow cytometer after 3 day-culture. […]

E-selectin = E-selectin binding ability of NALL1 cells by flow cytometer (human chimera-Fc-Ig-E-selectin); assay type: cell-based
Excerpt: as §1, §2, §3

CD43 antigen = CD43 antigen expression in NALL1 cells by flow cytometer (MEM59 antibody); assay type: cell-based, human; settings: for CD43 expression: siRNA introduced by lentivirus pLL3.7 vector, GFP positive fraction, vs vacant vector
Excerpt: These siRNAs were expressed in cells to confirm the effects. For introduction of siRNA into cells, a lentivirus system (product of Invitrogen Corporation) which is able to gene introduction into blood cells at high efficiency and an expression vector for lentivirus pLL3.7 (Nat. Genet., 33, 401-406 (2003)) were used. In the pLL3.7 vector, it is possible to introduce a sense/antisense siRNA sequence including a hair-pin structure downstream of a U6 promoter. The pLL3.7 vector expresses Green Fluorescent Protein (GFP) by a CMV promoter at the same time. Accordingly, oligonucleotide including the sense chain, antisense chain, and hair-pin structure of the designed siRNA sequence (CD43-#1 to #5, CD43-$1 to $5; alphabet f at the end of the name indicates the sense chain, and r indicates the antisense chain) was chemically synthesized and then cloned to pLL3.7 vector, followed by introduction into 293 cells together with a vector for virus particle production. After that, siRNA expression lentivirus vector was collected from a supernatant of the culture medium (FIG. 8). Virus infection was caused by co-culture of the virus particles and NALL1 cells to introduce the siRNA into the cells and the siRNA is expressed. GFP was simultaneously expressed in the cells into which the siRNA was introduced by the pLL3.7 vector. Therefore, expression of the CD43 antigen and sialyl Lewis x and the selectin binding ability of the cells in which the GFP expression was observed, i.e. of the cells in which siRNA was expressed, were analyzed by using the antibody MEM59 (product of Monosan) for CD43, sialyl Lewis x antibody CSLEX1, and human chimera-Fc-Ig-E- or P-selectin with the use of a flow cytometer. As a result, in introduction of vacant vector (pLL3.7), a high rate of the CD43 expression was observed irrelevant from GFP positive or negative.
Benzyl-α-N-acetylgalactosamine (Bz-α-GalNAc; product of Sigma-Aldrich Japan, K.K.) which is one of sugar chain synthesis inhibiting agents was added to a culture supernatant of NALL1 cells to detect its binding ability to selectin. Benzyl-α-N-acetylgalactosamine is subject to sugar chain modification like N-acetylgalactosamine added to serine and threonine of a protein when taken into a cell. Therefore, since the original sugar chain modification to a glycoprotein is suppressed by an addition of an excessive amount of benzyl-α-N-acetylgalactosamine, benzyl-α-N-acetylgalactosamine is used as an O-linked sugar chain synthesis inhibiting agent. After adding 4 mM of benzyl-α-N-acetylgalactosamine to the culture supernatant of NALL1 cells, expressions of the CD43 antigen and sialyl Lewis x and binding ability to E- and P-selectin were detected by a flow cytometer after 3 day-culture. […]

[1] = siRNA introduced by lentivirus pLL3.7 vector (FIG. 10)

Molecule: CC(=O)N[C@H]1[C@@H](OCc2ccccc2)O[C@H](CO)[C@H](O)[C@@H]1O [benzyl-α-N-acetylgalactosamine, Benzyl-α-N-acetylgalactosamine, reference compound]
- sialyl Lewis x expression (sialyl Lewis x; 4 mM, 3 day-culture): remarkably reduced
- selectin binding ability (P-selectin) (P-selectin; 4 mM, 3 day-culture): almost lost
- selectin binding ability (E-selectin) (E-selectin; 4 mM, 3 day-culture): almost lost
- expression of CD43 antigen (CD43 antigen; 4 mM, 3 day-culture): no change

B1: siCD43-#1-pLL3.7: siRNA for CD43 antigen in pLL3.7 lentivirus vector; CD43 sequence gtgaccctaaggccgacag (nucleic acid)
sense: TGTGACCCTAAGGCCGACAGTTCAAGAGACTGTCGGCCTTAGGGTCACTTTTTTC
antisense: TCGAGAAAAAAGTGACCCTAAGGCCGACAGTCTCTTGAACTGTCGGCCTTAGGGTCACA
modifications: shRNA oligos cloned in pLL3.7 lentivector
- CD43 expression (CD43 antigen): significant reduction

B2: siCD43-#5-pLL3.7: siRNA for CD43 antigen in pLL3.7 lentivirus vector; CD43 sequence gcgtaacggggtggtggac (nucleic acid)
sense: TGCGTAACGGGGTGGTGGACTTCAAGAGAGTCCACCACCCCGTTACGCTTTTTTC
antisense: TCGAGAAAAAAGCGTAACGGGGTGGTGGACTCTCTTGAAGTCCACCACCCCGTTACGCA
modifications: shRNA oligos cloned in pLL3.7 lentivector
- CD43 expression (CD43 antigen): significant reduction

B3: siCD43-#2-pLL3.7: siRNA for CD43 antigen in pLL3.7 lentivirus vector; CD43 sequence ggccgacagcactggggac (nucleic acid)
sense: TGGCCGACAGCACTGGGGACTTCAAGAGAGTCCCCAGTGCTGTCGGCCTTTTTTC
antisense: TCGAGAAAAAAGGCCGACAGCACTGGGGACTCTCTTGAAGTCCCCAGTGCTGTCGGCCA
modifications: shRNA oligos cloned in pLL3.7 lentivector
- sialyl Lewis x expression (sialyl Lewis x; [1]): remarkable reductions
- selectin binding ability (P-selectin) (P-selectin; [1]): remarkable reductions
- selectin binding ability (E-selectin) (E-selectin; [1]): remarkable reductions
- CD43 expression (CD43 antigen): significant reduction
